According to patent publication US20100222251A1, “MIXTURE COMPRISING AN AMYLIN PEPTIDE AND A PROTRACTED INSULIN” (Novo Nordisk A/S, priority 2007, published 2010):

Assay: Solubility versus pH curves (centrifugation, reverse HPLC)
Type: physicochemical
Procedure: Solubility versus pH curves were measured in the following way. A formulation was prepared and aliquotes were adjusted to pH values in the desired range by adding HClO4 or HCl and NaOH. These samples were left equilibrating at room temperature for 2-3 days. Then the samples were centrifuged. A small aliquot of each sample was withdrawn for reverse HPLC analysis for determination of the concentration of the proteins in solution. The pH of each sample was measured after the centrifugation, and the concentration of each protein was depicted versus the measured pH.

Compound	pH of full precipitation (below physiological pH) (Example 2 mix, 0.6 mM GlyA21 ArgB31 ArgB32 human insulin, 0.46 mM Zn(Ac)2, 30 mM phenol, 50 μM pramlintide)	pH of complete precipitation (below physiological pH) (Example 1, 0.6 mM GlyA21 ArgB31 ArgB32 human insulin, 0.46 mM Zn(Ac)2, 30 mM phenol)	precipitation versus pH compared to formulation of the insulin analogue alone (Example 2 mix, 0.6 mM insulin analogue, 0.46 mM Zn(Ac)2, 30 mM phenol, 50 μM pramlintide)	solubility state at pH 7 (Example 3 mix, pH 7, 0.6 mM GlyA21 ArgB31 ArgB32 human insulin, 0.3 mM Zn(Ac)2, 30 mM phenol, 100 μM pramlintide)	pH above which completely precipitated (FIG. 1, 0.6 mM GlyA21 ArgB31 ArgB32 human insulin, 0.46 mM Zn(Ac)2, 30 mM phenol)
CC[C@H](C)[C@H](NC(=O)[C@@H]1CCCN1C(=O)CNC(=O)[C@H](Cc1ccccc1)NC(=O)[C@H](CC(N)=O)NC(=O)[C@H](CC(N)=O)NC(=O)[C@H](CO)NC(=O)[C@H](CO)NC(=O)[C@H](Cc1c[nH]cn1)NC(=O)[C@@H](NC(=O)[C@H](CC(C)C)NC(=O)[C@H](Cc1ccccc1)NC(=O)[C@H](CC(N)=O)NC(=O)[C@H](C)NC(=O)[C@H](CC(C)C)NC(=O)[C@H](CCCNC(=N)N)NC(=O)[C@H](CCC(N)=O)NC(=O)[C@@H](NC(=O)[C@H](C)NC(=O)[C@@H]1CSSC[C@H](NC(=O)[C@@H](N)CCCCN)C(=O)N[C@@H](CC(N)=O)C(=O)N[C@@H]([C@@H](C)O)C(=O)N[C@@H](C)C(=O)N[C@@H]([C@@H](C)O)C(=O)N1)[C@@H](C)O)C(C)C)C(=O)N[C@@H](CC(C)C)C(=O)N1CCC[C@H]1C(=O)N1CCC[C@H]1C(=O)N[C@H](C(=O)N[C@@H](CC(N)=O)C(=O)N[C@H](C(=O)NCC(=O)N[C@@H](CO)C(=O)N[C@@H](CC(N)=O)C(=O)N[C@H](C(=O)N[C@@H](Cc1ccc(O)cc1)C(N)=O)[C@@H](C)O)C(C)C)[C@@H](C)O [pramlintide, Pro25 Pro28 Pro29-h-amylin]	< 7.4 pH	–	–	–	–
GlyA21 ArgB31 ArgB32 human insulin	–	< 7.4 pH	not changed	completely precipitated	> 6.5 pH
